The values that follow come from publication doi:10.1101/2022.05.07.491051 (bioRxiv, 2022).

Read-outs that look alike come from different tables or passages of the source.

Data set [1] deals with the molecule itself. The data set can be described thus: SEC-MALS.
Data set [2] deals with the molecule itself. Description: SEC-MALS. This is another data set of the same source. For orientation: In gel filtration, larger molecules generally elute earlier.
Data set [3] concerns the molecule itself. Description: crystal structure.

B1: AbThsA (Acinetobacter baumannii ThsA) (enzyme, UniProt P0DW59 1-482, looked up)
chain: MFEHEQKIMIDRIVKELEENNFAIFAGAGLSAPAGYVNWKELLRPLSIELNLDIDKETDLVSLAQYYVNENHGRNRLTERLIDEVGVAREPTPNHKILAKLPISTYWTTNYDDLIEKALDNEGKIADKKFTKNHLSQTKKGRSAVVYKMHGDASLPDQAIITKDQYESYPLHFAPFVTALSGDLVSKTFLFLGFSFNDPNLDYILSRIRIHFEQNQRQHYCIFRKVNRADYSNDEDFSYNLLKQQFVIKDLARFSIKVVLIDAWNDLTRILEEITKRFRCKNVFLSGSAHEFGSWGQTATELFLSKLGEVLIQEGFKITSGLGLGIGNAFISGAIKEIYNRKYTKIDDYLTMKVFPQFVADPTERKNIWTAWRKDLLSQTGIALFFMGNKIIKDPESGKQTIVLADGMDEEFHIAHELGLKLIPIGASGYKAKELFNQIISDFDHYYPNSSPKFREAFEKLNEEVDEPVKLLSKIHDVIKLI
What is called stoichiometry N is the number of molecules, sites or subunits per partner or assembly. In the case of B1, the “stoichiometry N” value in data set [1] was 4.

B2: AbTir^TIR (amino acid 134-267) (domain or fragment, Acinetobacter, UniProt A0A009IHW8 134-267, looked up)
chain: EYDLFISHASEDKEDFVRPLAETLQQLGVNVWYDEFTLKVGDSLRQKIDSGLRNSKYGTVVLSTDFIKKDWTNYELDGLVAREMNGHKMILPIWHKITKNDVLDYSPNLADKVALNTSVNSIEEIAHQLADVIL
B2: the binding result in data set [2] is on record as “binds”.

B3: AbTir^CC (amino acid 27-118) (domain or fragment, Acinetobacter, UniProt A0A009IHW8 27-118, looked up)
chain: SPSTLKTKLSEISRKEQENARIQSKLSDLQKKKIDIDNKLLKEKQNLIKEEILERKKLEVLTKKQQKDEIEHQKKLKREIDAIKASTQYITD
Take B3: in data set [2], the binding result is reported as “binds”.

B4: BtTir^TIR (residues 156-287) (domain or fragment, Bacteroides thetaiotaomicron, UniProt A0A0P0FGV9 156-287, looked up)
chain: QYDFFISHASEDKDDIVRDLAEALRNNGFEVWYDEFELKIGDSLRKKIDYGLSNANYGIVIISPSFVKKNWTEYELNGMVAREMNGHKVILPIWHKITKDEVLRFSPSLADKLALNTSIHTIDDIVENLKNL
B4: in data set [3], the binding result is reported as “binds”.

B5: AbTir^full-length (amino acid 1-269) (natural protein, Acinetobacter, UniProt A0A009IHW8 1-269, looked up)
chain: MSLEQKKGADIISKILQIQNSIGKTTSPSTLKTKLSEISRKEQENARIQSKLSDLQKKKIDIDNKLLKEKQNLIKEEILERKKLEVLTKKQQKDEIEHQKKLKREIDAIKASTQYITDVSISSYNNTIPETEPEYDLFISHASEDKEDFVRPLAETLQQLGVNVWYDEFTLKVGDSLRQKIDSGLRNSKYGTVVLSTDFIKKDWTNYELDGLVAREMNGHKMILPIWHKITKNDVLDYSPNLADKVALNTSVNSIEEIAHQLADVILNR
Regarding B5, the “stoichiometry N” value in data set [2] stood at 2.

B6: SeThsA (Streptococcus equi ThsA) (enzyme)
chain: MFIIKGEVSRKDLIREIEKAIKSDELGAFIGAGLSIPAGFCSWKELLREPAEEIGLDVEKESDLVNLAQYYSNSKKRTSIDDLIKGQFSQLVKPTENHKLLSQLPISTFWTTNYDKLIEKALENNMKKPYVKTKDEQLRGTNHNFDAIVYKLHGDVETPEDAVITRSDYEEFGYNKRKLFREVLEGDLLTKTFLFLGFSFEDPNFNYVIGRLRVLLDEKNTRKHYCIMKRVQDADEDYEYKKARQELQIEDLNRYGIFTYLVNKYDEITEILSTLVDRFRRKTIFISGSAYSYSAYSQKTGENFIHKLSFELSKNGYHIVNGYGKGVGEFVLNGVADYCLTHKSKINDFLTLMPFPQNSSLGIDLDKLYKENREQMIESCGIAIFLFGNKEAEDIASGVMDEYELSKKHGLVCLPIEYTGGASKEIYDQTTQEISDKNTISAIEQANKQCDGDIDMSVKNIVQAVKILNKEEF
Regarding B6, the “stoichiometry N” value in data set [1] turned out to be 4.

B7: SeThsA^SIR2 (residues 1-283) (domain or fragment, Streptococcus equi, UniProt C0MAL8 1-283, looked up)
chain: MFIIKGEVSRKDLIREIEKAIKSDELGAFIGAGLSIPAGFCSWKELLREPAEEIGLDVEKESDLVNLAQYYSNSKKRTSIDDLIKGQFSQLVKPTENHKLLSQLPISTFWTTNYDKLIEKALENNMKKPYVKTKDEQLRGTNHNFDAIVYKLHGDVETPEDAVITRSDYEEFGYNKRKLFREVLEGDLLTKTFLFLGFSFEDPNFNYVIGRLRVLLDEKNTRKHYCIMKRVQDADEDYEYKKARQELQIEDLNRYGIFTYLVNKYDEITEILSTLVDRFRRKT
In the case of B7, the “stoichiometry N” value in data set [1] is 2.

B8: EfThsA (Enterococcus faecium ThsA) (enzyme, UniProt P0DW60 1-478, looked up)
chain: MDKKVLIKRFSEAIEKGNAAIFAGAGLSMSQGYVSWPELLNDPATEIGLDSKKETDLVTLAQYYKNENGGSRGILNQILMDNFGEELEISENHRILASLPIETYWTTNYDHLIEKSIREAYKNPQVKKNYTQLATTNPNVDTIVYKMHGDIDDVSSTVITRDDYEKYDDDSYALFKETLKGDLLTKTFLFLGFSFTDPNLERILSDIRWVLRENQRPHYCIMRKILKENFVDSEDFFDQERYNYELTKRRLQINDLSRFSINVVEVDDYSEITDILKSIRKKYLRKTIFISGSAVDYTPFTSESKGLKFVEKLAYRLSESGYRIVSGYGLGIGNSIVSGVLKQRRNLRKNNIQDVLSLRPLPLDMPHEWRRYRENIIAESGISIFVFGNKLESGEIVTADGMIEEFELSVQNENIVVPIGFTKGASKVLFDKIQENFSDYFDDSLKSKFQALEKLDTEGEVDKKVEQIVSLINSIQED
Consider B8, for which the “stoichiometry N” value in data set [1] was 4.

B9: BcThsA, full-length (Bacillus cereus MSX-D12 Thoeris ThsA) (enzyme, Bacilus cereus MSX-D12, UniProt J8G6Z1 1-476, looked up)
chain: MKMNPIVELFIKDFTKEVMEENAAIFAGAGLSMSVGYVSWAKLLEPIAQEIGLDVNKENDLVSLAQYYCNENQGNRGRINQIILDEFSRKVDLTENHKILARLPIHTYWTTNYDRLIEKALEEENKIADVKYTVKQLATTKVKRDAVVYKMHGDVEHPSEAVLIKDDYEKYSIKMDPYIKALSGDLVSKTFLFVGFSFTDPNLDYILSRVRSAYERDQRRHYCLIKKEERRPDELEADFEYRVRKQELFISDLSRFNIKTIVLNNYNEITEILQRIENNIKTKTVFLSGSAVEYNHWETEHAEQFIHQLSKELIRKDFNIVSGFGLGVGSFVINGVLEELYMNQGTIDDDRLILRPFPQGKKGEEQWDKYRRDMITRTGVSIFLYGNKIDKGQVVKAKGVQSEFNISFEQNNYVVPVGATGYIAKDLWNKVNEEFETYYPGADARMKKLFGELNNEALSIEELINTIIEFVEILSN
In the case of B9, the “stoichiometry N” value in data set [1] is 4.

B10: BcThsA^SLOG (284-476) (domain or fragment, Bacilus cereus MSX-D12, UniProt J8G6Z1 284-476, looked up)
chain: TVFLSGSAVEYNHWETEHAEQFIHQLSKELIRKDFNIVSGFGLGVGSFVINGVLEELYMNQGTIDDDRLILRPFPQGKKGEEQWDKYRRDMITRTGVSIFLYGNKIDKGQVVKAKGVQSEFNISFEQNNYVVPVGATGYIAKDLWNKVNEEFETYYPGADARMKKLFGELNNEALSIEELINTIIEFVEILSN
Take B10: the “stoichiometry N” value in data set [1] came out at 2.
